system: Escherichia coli TOP10; test: shrunken log2 fold change of peptide-encoding DNA abundance (4.5 h post-induction vs induction); higher = less antimicrobial activity (less host growth inhibition); conditions: time post-induction: 4.5 h; library: site-saturation at positions 5, 18, 19, 20
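Also: peptides expressed intracellularly from a pBAD plasmid library in pooled LB shake-flask culture, induced with 0.3% L-arabinose, DNA abundance read by NGS, three biological replicates, DESeq2 with apeglm shrinkage.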

| Sequence | shrunken log2 fold change |
| --- | --- |
| RRIRKRPPRLPRPRPRPPCPPRP | 0.399 |
| RRIRNRPPRLPRPRPRPMPMPRP | 0.0119 |
| RRIRHRPPRLPRPRPRPVLWPRP | 0.234 |
| RRIRGRPPRLPRPRPRPCHIPRP | -0.028 |
| RRIRCRPPRLPRPRPRPVDFPRP | -0.252 |
| RRIRYRPPRLPRPRPRPLMWPRP | -0.0343 |
| RRIRCRPPRLPRPRPRPPPHPRP | 1.3 |
| RRIRERPPRLPRPRPRPKLLPRP | 0.0473 |
| RRIRDRPPRLPRPRPRPRLYPRP | -0.0462 |
| RRIRQRPPRLPRPRPRPTEQPRP | 0.0331 |
| RRIRQRPPRLPRPRPRPQSPPRP | -0.0301 |
| RRIRLRPPRLPRPRPRPILDPRP | -0.05 |
| RRIRERPPRLPRPRPRPFGAPRP | 0.143 |
| RRIRLRPPRLPRPRPRPDWWPRP | 0.0919 |
| RRIRTRPPRLPRPRPRPKETPRP | 0.137 |
| RRIRVRPPRLPRPRPRPLIFPRP | -0.317 |
| RRIRERPPRLPRPRPRPPYTPRP | -0.176 |
| RRIRWRPPRLPRPRPRPDSWPRP | 0.251 |
| RRIRVRPPRLPRPRPRPMIPPRP | -0.319 |
| RRIRQRPPRLPRPRPRPNTTPRP | 0.15 |

| Sequence | shrunken log2 fold change |
| --- | --- |
| RRIRHRPPRLPRPRPRPCHLPRP | -0.113 |
| RRIRTRPPRLPRPRPRPCVVPRP | -0.0223 |
| RRIRHRPPRLPRPRPRPRFQPRP | 0.00482 |
| RRIRFRPPRLPRPRPRPWTEPRP | -0.119 |
| RRIRCRPPRLPRPRPRPISDPRP | -0.237 |
| RRIRNRPPRLPRPRPRPVMFPRP | -0.0883 |
| RRIRDRPPRLPRPRPRPVLKPRP | 0.0359 |
| RRIRWRPPRLPRPRPRPKGRPRP | 0.0214 |
| RRIRLRPPRLPRPRPRPPVEPRP | 0.638 |
| RRIRKRPPRLPRPRPRPMAMPRP | 0.325 |
| RRIRTRPPRLPRPRPRPLYIPRP | -0.998 |
| RRIRLRPPRLPRPRPRPEQIPRP | -0.0478 |
| RRIRIRPPRLPRPRPRPPTRPRP | 0.251 |
| RRIRWRPPRLPRPRPRPNAYPRP | -0.214 |
| RRIRSRPPRLPRPRPRPMAIPRP | 4e-05 |
| RRIRWRPPRLPRPRPRPHQHPRP | -0.214 |
| RRIRRRPPRLPRPRPRPDNDPRP | 0.104 |
| RRIRARPPRLPRPRPRPKTVPRP | 0.141 |
| RRIRLRPPRLPRPRPRPICLPRP | 0.193 |
| RRIRDRPPRLPRPRPRPTWNPRP | -0.07 |

| Sequence | shrunken log2 fold change |
| --- | --- |
| RRIRIRPPRLPRPRPRPTWCPRP | 0.0363 |
| RRIRTRPPRLPRPRPRPATNPRP | -0.0241 |
| RRIRFRPPRLPRPRPRPKSIPRP | -0.0406 |
| RRIRERPPRLPRPRPRPWCLPRP | -0.746 |
| RRIRQRPPRLPRPRPRPYDYPRP | -0.133 |
| RRIRYRPPRLPRPRPRPQAWPRP | 0.0215 |
| RRIRERPPRLPRPRPRPYGHPRP | -0.136 |
| RRIRNRPPRLPRPRPRPNNGPRP | -0.0309 |
| RRIRSRPPRLPRPRPRPKNRPRP | 0.0193 |
| RRIRNRPPRLPRPRPRPDRIPRP | -0.0387 |
| RRIRARPPRLPRPRPRPDAIPRP | 1.03 |
| RRIRTRPPRLPRPRPRPDYNPRP | -0.0768 |
| RRIRWRPPRLPRPRPRPTYHPRP | -0.0794 |
| RRIRKRPPRLPRPRPRPQASPRP | 0.353 |
| RRIRWRPPRLPRPRPRPCPSPRP | 0.0767 |
| RRIRSRPPRLPRPRPRPTFLPRP | -0.0423 |
| RRIRMRPPRLPRPRPRPQVWPRP | 0.399 |
| RRIRVRPPRLPRPRPRPHIRPRP | -0.503 |
| RRIRMRPPRLPRPRPRPFNHPRP | -0.367 |
| RRIRMRPPRLPRPRPRPNCHPRP | 0.0305 |

Reference: the supplement of paper PMC9112550, “Optimization of the antimicrobial peptide Bac7 by deep mutational scanning” (BMC Biology, 2022)
